Patent US20260077028A1
Several values for one entry are separate records, joined by “and”; a condition that tells them apart may be missing. Identical values can stand only once.

Tests used:
[1] = biological target: DEspR on activated neutrophils (species of the neutrophils not stated for FIG. 6 / FIG. 17C); test: cell-based or functional assay
[2] = biological target: T1, human DEspR (dual endothelin/VEGF signal peptide receptor) (human) (UniProt B0L3A2); test: binding to DEspR on intact human cells, triplicate
T1 sequence: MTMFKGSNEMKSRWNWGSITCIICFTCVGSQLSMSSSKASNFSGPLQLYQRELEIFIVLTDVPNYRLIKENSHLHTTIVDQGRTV

B1: 6g8 mumab, murine anti-DEspR monoclonal antibody (pan-species reactive anti-Human/Rat/Monkey DEspR mAb), precursor of hu-6g8 (antibody, from a related filing, V domains shown)
VH: EVQLQESGGGLVQPGGSLKLSCAASGFDFSRYWMSWVRQAPGKGLEWIGEINPDSSTINYTPSLKDKFIISRDTAKKTLYLQMSKVRSEDTALYYCARHGRGMDYWSQGTSVTVSS
VL: DIVLTQTNQIMSASVGDRVSVTCKASQNVDSNVAWYQQKPGHSPKALIYSASYRYSRVPDRITGSGSGTDFTLTITNVQSKDLADYFCQQYHSYPLLAFGAGTKLELKR
- inhibition of neutrophil (PMN) survival (IC50) [1]: > 198 nM
- inhibition of survival (IC50), live cells counted by Trypan blue dye exclusion [1]: > 200 nM and > 30 µg/mL
- EC50 [2]: 178 nM
